We go through 1 molecule from paper PMC11452399 (Nature Communications, 2024).

The assay concerns the target human ferritin heavy chain (FTH1) (human, UniProt P02794). Description: ELISA.

Sequence of human ferritin heavy chain (FTH1) (P02794 whole entry): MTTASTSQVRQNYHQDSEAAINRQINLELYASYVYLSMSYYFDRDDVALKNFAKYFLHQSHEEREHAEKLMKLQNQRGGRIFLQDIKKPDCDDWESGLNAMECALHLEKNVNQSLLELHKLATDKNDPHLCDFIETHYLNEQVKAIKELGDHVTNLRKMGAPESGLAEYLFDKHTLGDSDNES

B1: GST-Peptide WT (NCOA4 484-499) (peptide)
chain: DSFQVIKNSPLSEWLI
The molecule B1 displayed an EC50 of 288 nM.
